From patent US20070237759A1

Legend:
[1] = target: human PAR-2 (proteinase activated receptor-2) (human) (UniProt P55085); test: cell-based or functional assay
[2] = target: PAR-2 expressed on cells, species not stated (Homo sapiens (Human)) (UniProt P55085); test: cell-based or functional assay

Question: What does the source list for SAM11 monoclonal antibody to PAR-2?
Answer: IC50 HCT-116, FLIPR Ca2+ mobilization [1]: > 2000 nM; IC50 KNRK, FLIPR Ca2+ mobilization [2]: > 2000 nM
